# Assay results reported in publication PMC7059380, “In vivo visualization of the i-motif DNA secondary structure in the Bombyx mori testis”.
# B1: BGIBMGA003213-G4 (structured_DNA)
# DNA: GGGGGTGCGGGGGACGCGGGGGGCGCGGGG
# B2: BmPOUM2-G4 (structured_DNA)
# DNA: CCAGTGCGGGGCGCGAGGGGGCCGAGGGGCGGGGCAACAA
# B3: BGIBMGA003213-WT i-motif (MST) (structured_DNA)
# DNA: CCCCGCGCCCCCCGCGTCCCCCGCACCCCC
# B4: BGIBMGA003213-Mut (ssDNA)
# DNA: CATTGCGATATCAGCGTTATCAGTATCAAT
# B5: Hairpin (structured_DNA)
# DNA: CAGTGGCGGCCATCCGTTTAATATTACCGGATGGCCGCGCGAT
# B6: BGIBMGA003213-WT i-motif (EMSA) (structured_DNA)
# DNA: B3 DNA
# B7: BmPOUM2-Mut (ssDNA)
# DNA: TTGTTGTACTGCTACTCGGATCACTCGAGCATCGTACTGG
# B8: BmPOUM2-WT i-motif (EMSA) (structured_DNA)
# DNA: TTGTTGCCCCGCCCCTCGGCCCCCTCGCGCCCCGCACTGG
# B9: BmPOUM2-WT i-motif (MST) (structured_DNA)
# DNA: B8 DNA
# What was measured:
# BmILF [1] = molecular target: T1, BmILF (Bombyx mori, UniProt A0A1U9WZ16 1-382); assay: EMSA; EMSA: 20 ul, 2.5% glycerol, 0.05% NP-40, 5 mM MgCl2, 4 mM EDTA, RT 20 min; probes folded in 50 mM Tris-TAE pH 4.0 (also 6.0, 8.0). MST: NanoTemper buffer with 100 mM Tris pH 6.0, 2.93-6000 nM BmILF, 25 C; conditions: protein: recombinant, label: 5' biotin
# T1 sequence: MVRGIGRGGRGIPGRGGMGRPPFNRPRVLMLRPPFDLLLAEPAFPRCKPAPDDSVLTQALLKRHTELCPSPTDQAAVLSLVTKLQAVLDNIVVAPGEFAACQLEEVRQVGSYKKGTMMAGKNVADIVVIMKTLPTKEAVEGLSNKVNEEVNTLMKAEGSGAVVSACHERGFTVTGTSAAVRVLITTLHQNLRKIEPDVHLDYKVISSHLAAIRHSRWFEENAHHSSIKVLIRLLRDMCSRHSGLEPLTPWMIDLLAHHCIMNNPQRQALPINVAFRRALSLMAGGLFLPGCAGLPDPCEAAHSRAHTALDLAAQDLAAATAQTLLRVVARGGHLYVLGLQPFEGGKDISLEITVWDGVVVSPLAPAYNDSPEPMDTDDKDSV
# BmILF [2] = molecular target: T1, BmILF; assay: MST; pH 6.0, 50 nM probe; EMSA: 20 ul, 2.5% glycerol, 0.05% NP-40, 5 mM MgCl2, 4 mM EDTA, RT 20 min; probes folded in 50 mM Tris-TAE pH 4.0 (also 6.0, 8.0). MST: NanoTemper buffer with 100 mM Tris pH 6.0, 2.93-6000 nM BmILF, 25 C; conditions: protein: recombinant; label: Cy5; i-motif (folded at pH 4.0)
# BmILF [3] = molecular target: T1, BmILF; assay: EMSA; pH 4.0; EMSA: 20 ul, 2.5% glycerol, 0.05% NP-40, 5 mM MgCl2, 4 mM EDTA, RT 20 min; probes folded in 50 mM Tris-TAE pH 4.0 (also 6.0, 8.0). MST: NanoTemper buffer with 100 mM Tris pH 6.0, 2.93-6000 nM BmILF, 25 C; conditions: protein: recombinant; label: 5' biotin; no i-motif by CD
# BmILF [4] = molecular target: T1, BmILF; assay: EMSA; Hill fit; EMSA: 20 ul, 2.5% glycerol, 0.05% NP-40, 5 mM MgCl2, 4 mM EDTA, RT 20 min; probes folded in 50 mM Tris-TAE pH 4.0 (also 6.0, 8.0). MST: NanoTemper buffer with 100 mM Tris pH 6.0, 2.93-6000 nM BmILF, 25 C; conditions: protein: recombinant; label: 5' biotin; i-motif (folded by slow cooling at acidic pH)
binder,measurement,setting,value
B1,binding result,BmILF [1]; G4,no binding
B2,binding result,BmILF [1]; G4,no binding
B3,Kd,BmILF [2],367 nM
B4,binding result,BmILF [3],no binding
B5,binding result,BmILF [1]; hairpin,no binding
B6,Kd,BmILF [4],78 nM
B7,binding result,BmILF [3],no binding
B8,Kd,BmILF [4],119 nM
B9,Kd,BmILF [2],430 nM
